For the series, the system named is Escherichia coli TOP10. The series is described as follows: shrunken log2 fold change of peptide-encoding DNA abundance (4.5 h post-induction vs induction); higher = less antimicrobial activity (less host growth inhibition). The note with it: time post-induction: 4.5 h; library: site-saturation at positions 5, 18, 19, 20.
RRIRGRPPRLPRPRPRPSKPPRP: the “shrunken log2 fold change” value was 0.218.

Consider RRIRFRPPRLPRPRPRPWIAPRP, for which the “shrunken log2 fold change” value was -0.0534.

For the sequence RRIRIRPPRLPRPRPRPPLLPRP, the “shrunken log2 fold change” value amounted to 0.444.

On to RRIRARPPRLPRPRPRPKPPPRP, for which the “shrunken log2 fold change” value stood at 0.959.

For RRIRQRPPRLPRPRPRPIHLPRP, the “shrunken log2 fold change” value was -0.137.

For RRIRQRPPRLPRPRPRPAHHPRP, the “shrunken log2 fold change” value was 0.138.

Turning to RRIRVRPPRLPRPRPRPMGLPRP, the “shrunken log2 fold change” value is -0.00681.

Turning to RRIRNRPPRLPRPRPRPFPVPRP, the “shrunken log2 fold change” value is -0.125.

Consider RRIRDRPPRLPRPRPRPSFWPRP, for which the “shrunken log2 fold change” value is 0.585.

As to RRIRYRPPRLPRPRPRPTCPPRP, the “shrunken log2 fold change” value was -0.434.

RRIRVRPPRLPRPRPRPSDLPRP: the “shrunken log2 fold change” value was -0.196.

For the sequence RRIRSRPPRLPRPRPRPEVSPRP, the “shrunken log2 fold change” value was determined as 0.214.

Take RRIRQRPPRLPRPRPRPQGVPRP: the “shrunken log2 fold change” value worked out at 0.0036.

In the case of RRIRDRPPRLPRPRPRPCDLPRP, the “shrunken log2 fold change” value was -0.0487.

On to RRIRRRPPRLPRPRPRPVYMPRP, for which the “shrunken log2 fold change” value was -0.0789.

For RRIRLRPPRLPRPRPRPRLEPRP, the “shrunken log2 fold change” value came to 0.348.

Turning to RRIRLRPPRLPRPRPRPCYPPRP, the “shrunken log2 fold change” value is -0.661.

Turning to RRIRDRPPRLPRPRPRPWSPPRP, the “shrunken log2 fold change” value turned out to be 0.127.

As for RRIRTRPPRLPRPRPRPFYHPRP, the “shrunken log2 fold change” value is -0.486.

With RRIRKRPPRLPRPRPRPRRFPRP, the “shrunken log2 fold change” value came out at 0.39.

In the case of RRIRMRPPRLPRPRPRPNGFPRP, the “shrunken log2 fold change” value was 0.207.

Take RRIRERPPRLPRPRPRPHVTPRP: the “shrunken log2 fold change” value was -0.228.

On to RRIRKRPPRLPRPRPRPTRGPRP, for which the “shrunken log2 fold change” value was determined as 0.857.

Take RRIRMRPPRLPRPRPRPPPSPRP: the “shrunken log2 fold change” value is 1.95.

Take RRIRRRPPRLPRPRPRPSQKPRP: the “shrunken log2 fold change” value is -0.00949.

Regarding RRIRRRPPRLPRPRPRPSTFPRP, the “shrunken log2 fold change” value is -0.02.

On to RRIRVRPPRLPRPRPRPTHPPRP, for which the “shrunken log2 fold change” value worked out at 0.378.

For the sequence RRIRIRPPRLPRPRPRPPFPPRP, the “shrunken log2 fold change” value turned out to be 0.141.

For RRIRRRPPRLPRPRPRPSWGPRP, the “shrunken log2 fold change” value is -0.0778.

Turning to RRIRCRPPRLPRPRPRPSRLPRP, the “shrunken log2 fold change” value came to 0.0589.

For RRIRERPPRLPRPRPRPLRLPRP, the “shrunken log2 fold change” value came to 0.304.

For RRIRSRPPRLPRPRPRPAEKPRP, the “shrunken log2 fold change” value stood at 0.0409.

RRIRVRPPRLPRPRPRPEVDPRP: the “shrunken log2 fold change” value came out at 0.296.

Turning to RRIRFRPPRLPRPRPRPWQDPRP, the “shrunken log2 fold change” value is -0.00804.

With RRIRPRPPRLPRPRPRPLHGPRP, the “shrunken log2 fold change” value came to 0.0827.

As to RRIRERPPRLPRPRPRPGEWPRP, the “shrunken log2 fold change” value stood at 0.0118.

For the sequence RRIRCRPPRLPRPRPRPEQSPRP, the “shrunken log2 fold change” value is 0.67.

As for RRIRRRPPRLPRPRPRPNTHPRP, the “shrunken log2 fold change” value was -0.126.

As to RRIRSRPPRLPRPRPRPYVWPRP, the “shrunken log2 fold change” value was -0.332.

As to RRIRERPPRLPRPRPRPSGDPRP, the “shrunken log2 fold change” value is -0.253.

On to RRIRHRPPRLPRPRPRPEARPRP, for which the “shrunken log2 fold change” value is 0.192.

RRIRMRPPRLPRPRPRPGHIPRP: the “shrunken log2 fold change” value was 0.0817.

For RRIRNRPPRLPRPRPRPWIEPRP, the “shrunken log2 fold change” value was -0.042.

RRIRERPPRLPRPRPRPSDWPRP: the “shrunken log2 fold change” value worked out at 0.0574.

RRIRERPPRLPRPRPRPQEYPRP: the “shrunken log2 fold change” value is -0.01.

As to RRIRDRPPRLPRPRPRPRHKPRP, the “shrunken log2 fold change” value was 0.227.

With RRIRERPPRLPRPRPRPINQPRP, the “shrunken log2 fold change” value was -0.734.

As for RRIRSRPPRLPRPRPRPWKKPRP, the “shrunken log2 fold change” value was -0.162.

For the sequence RRIRFRPPRLPRPRPRPFQDPRP, the “shrunken log2 fold change” value worked out at 0.0171.

Consider RRIRSRPPRLPRPRPRPYCVPRP, for which the “shrunken log2 fold change” value was -0.912.

For the sequence RRIRFRPPRLPRPRPRPAGYPRP, the “shrunken log2 fold change” value is 0.00702.

As for RRIRGRPPRLPRPRPRPHIHPRP, the “shrunken log2 fold change” value was -0.0259.

As for RRIRKRPPRLPRPRPRPAPTPRP, the “shrunken log2 fold change” value amounted to 1.01.

In the case of RRIRQRPPRLPRPRPRPHGEPRP, the “shrunken log2 fold change” value was 0.215.

As to RRIRSRPPRLPRPRPRPHGGPRP, the “shrunken log2 fold change” value was found to be 0.103.

Regarding RRIRCRPPRLPRPRPRPDLKPRP, the “shrunken log2 fold change” value is -0.257.

As for RRIRMRPPRLPRPRPRPCILPRP, the “shrunken log2 fold change” value is 0.053.

In the case of RRIRHRPPRLPRPRPRPHISPRP, the “shrunken log2 fold change” value is -0.226.

RRIRRRPPRLPRPRPRPVNSPRP: the “shrunken log2 fold change” value was -0.0287.

For the sequence RRIRLRPPRLPRPRPRPWKAPRP, the “shrunken log2 fold change” value is -0.0344.

Take RRIRQRPPRLPRPRPRPWLEPRP: the “shrunken log2 fold change” value was 0.0751.

On to RRIRPRPPRLPRPRPRPQCVPRP, for which the “shrunken log2 fold change” value worked out at 0.14.

For RRIRTRPPRLPRPRPRPQLFPRP, the “shrunken log2 fold change” value is -0.112.

In the case of RRIRFRPPRLPRPRPRPQLQPRP, the “shrunken log2 fold change” value worked out at 0.0569.

As for RRIRFRPPRLPRPRPRPMPVPRP, the “shrunken log2 fold change” value was -0.0124.

Turning to RRIRERPPRLPRPRPRPKPEPRP, the “shrunken log2 fold change” value was found to be 0.12.

With RRIRNRPPRLPRPRPRPRWTPRP, the “shrunken log2 fold change” value was found to be 0.0415.

As to RRIRRRPPRLPRPRPRPVAAPRP, the “shrunken log2 fold change” value came to 1.42.

Take RRIRGRPPRLPRPRPRPEDGPRP: the “shrunken log2 fold change” value worked out at 1.31.

RRIRCRPPRLPRPRPRPAGEPRP: the “shrunken log2 fold change” value was determined as 0.598.

As for RRIRIRPPRLPRPRPRPKKKPRP, the “shrunken log2 fold change” value is -0.442.

On to RRIRQRPPRLPRPRPRPPWLPRP, for which the “shrunken log2 fold change” value was 0.307.

Regarding RRIRLRPPRLPRPRPRPHLQPRP, the “shrunken log2 fold change” value is -0.0975.

For RRIRMRPPRLPRPRPRPLWPPRP, the “shrunken log2 fold change” value came to 0.616.

As to RRIRMRPPRLPRPRPRPCRQPRP, the “shrunken log2 fold change” value turned out to be 0.0303.

On to RRIRDRPPRLPRPRPRPVVFPRP, for which the “shrunken log2 fold change” value turned out to be 0.457.

With RRIRCRPPRLPRPRPRPAYIPRP, the “shrunken log2 fold change” value is -0.628.

Take RRIRERPPRLPRPRPRPYTSPRP: the “shrunken log2 fold change” value was -0.141.

As to RRIRQRPPRLPRPRPRPHVRPRP, the “shrunken log2 fold change” value was -0.00149.

For RRIRQRPPRLPRPRPRPSDCPRP, the “shrunken log2 fold change” value is -0.756.

On to RRIRCRPPRLPRPRPRPDLWPRP, for which the “shrunken log2 fold change” value is 0.134.

RRIRRRPPRLPRPRPRPLGKPRP: the “shrunken log2 fold change” value is -0.017.

As to RRIRARPPRLPRPRPRPFINPRP, the “shrunken log2 fold change” value is -0.356.

Turning to RRIRCRPPRLPRPRPRPAFKPRP, the “shrunken log2 fold change” value came out at 0.132.

Consider RRIRTRPPRLPRPRPRPTSLPRP, for which the “shrunken log2 fold change” value was -0.123.

As to RRIRTRPPRLPRPRPRPDWKPRP, the “shrunken log2 fold change” value was -0.0156.

For RRIRERPPRLPRPRPRPKELPRP, the “shrunken log2 fold change” value was determined as 0.00511.

As to RRIRFRPPRLPRPRPRPSHQPRP, the “shrunken log2 fold change” value was -0.229.

With RRIRVRPPRLPRPRPRPSALPRP, the “shrunken log2 fold change” value was -0.0271.

On to RRIRGRPPRLPRPRPRPAVGPRP, for which the “shrunken log2 fold change” value turned out to be 1.77.

As to RRIRVRPPRLPRPRPRPYGNPRP, the “shrunken log2 fold change” value was -0.0775.

For the sequence RRIRNRPPRLPRPRPRPMEYPRP, the “shrunken log2 fold change” value was -0.0389.

Turning to RRIRHRPPRLPRPRPRPKLIPRP, the “shrunken log2 fold change” value is -0.0143.

Turning to RRIRSRPPRLPRPRPRPQARPRP, the “shrunken log2 fold change” value came to 0.122.

As to RRIRRRPPRLPRPRPRPWKEPRP, the “shrunken log2 fold change” value was -0.00773.

On to RRIRQRPPRLPRPRPRPKISPRP, for which the “shrunken log2 fold change” value is -0.144.

Take RRIRFRPPRLPRPRPRPECVPRP: the “shrunken log2 fold change” value amounted to 0.0137.

RRIRPRPPRLPRPRPRPAVGPRP: the “shrunken log2 fold change” value was determined as 0.414.

On to RRIRNRPPRLPRPRPRPAFAPRP, for which the “shrunken log2 fold change” value came out at 0.158.

As to RRIRNRPPRLPRPRPRPYHSPRP, the “shrunken log2 fold change” value is -0.654.

In the case of RRIRARPPRLPRPRPRPEEWPRP, the “shrunken log2 fold change” value worked out at 0.0407.

For RRIRPRPPRLPRPRPRPDLCPRP, the “shrunken log2 fold change” value is -0.0739.

For RRIRMRPPRLPRPRPRPHNIPRP, the “shrunken log2 fold change” value was -0.0272.

With RRIRGRPPRLPRPRPRPWYEPRP, the “shrunken log2 fold change” value is -0.14.

On to RRIRLRPPRLPRPRPRPRVRPRP, for which the “shrunken log2 fold change” value turned out to be 0.325.

For the sequence RRIRNRPPRLPRPRPRPEPMPRP, the “shrunken log2 fold change” value came out at 0.132.

With RRIRCRPPRLPRPRPRPLNTPRP, the “shrunken log2 fold change” value is -0.343.

For RRIRSRPPRLPRPRPRPYTMPRP, the “shrunken log2 fold change” value was -0.19.

Consider RRIRLRPPRLPRPRPRPIPYPRP, for which the “shrunken log2 fold change” value is -0.401.

Regarding RRIRIRPPRLPRPRPRPPLGPRP, the “shrunken log2 fold change” value is 0.164.

RRIRPRPPRLPRPRPRPTFQPRP: the “shrunken log2 fold change” value came to 0.408.

Regarding RRIRVRPPRLPRPRPRPCENPRP, the “shrunken log2 fold change” value is -0.0135.

Turning to RRIRLRPPRLPRPRPRPARTPRP, the “shrunken log2 fold change” value was 0.468.

For RRIRPRPPRLPRPRPRPGEEPRP, the “shrunken log2 fold change” value was determined as 0.359.

As for RRIRHRPPRLPRPRPRPLTQPRP, the “shrunken log2 fold change” value is -0.417.

On to RRIRQRPPRLPRPRPRPPPKPRP, for which the “shrunken log2 fold change” value is 0.876.

With RRIRQRPPRLPRPRPRPDYQPRP, the “shrunken log2 fold change” value was 0.00672.

On to RRIRYRPPRLPRPRPRPWRYPRP, for which the “shrunken log2 fold change” value is 0.026.

With RRIRQRPPRLPRPRPRPEAIPRP, the “shrunken log2 fold change” value is -0.0935.

RRIRGRPPRLPRPRPRPNSDPRP: the “shrunken log2 fold change” value was -0.0204.

RRIRQRPPRLPRPRPRPMSKPRP: the “shrunken log2 fold change” value was -0.0682.

With RRIRQRPPRLPRPRPRPSTMPRP, the “shrunken log2 fold change” value came out at 0.0933.

For the sequence RRIRSRPPRLPRPRPRPWSIPRP, the “shrunken log2 fold change” value turned out to be 0.0338.

On to RRIRVRPPRLPRPRPRPILIPRP, for which the “shrunken log2 fold change” value is -0.413.

Regarding RRIRMRPPRLPRPRPRPCHFPRP, the “shrunken log2 fold change” value was -0.0459.

The values above are taken from the supplement of paper PMC9112550, “Optimization of the antimicrobial peptide Bac7 by deep mutational scanning” (BMC Biology, 2022).
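Note: peptides expressed intracellularly from a pBAD plasmid library in pooled LB shake-flask culture, induced with 0.3% L-arabinose, DNA abundance read by NGS, three biological replicates, DESeq2 with apeglm shrinkage.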
